Consider 1 substance from US20100286042A1.

The experiment has as its target FGFR2b. As to the kind of experiment: cell-based or functional assay.

In the case of “basic fibroblast growth factor (FGF2) (from UniProt P09038 143-288) (ligand)”, the cell proliferation promoting activity on BaF3 cells forced to express the receptor (in the presence of heparin), relative to FGF1 (fold of the activity of FGF1) was 0.001.
